# Patent US8158585B2, “Cross-β structure comprising amyloid-binding proteins and methods for detection of the cross-β structure, for modulating cross-β structures fiber formation and modulating cross-β structure-mediated toxicity” (CrossBeta Biosciences B.V., priority 2002, dated 2012)
# T1: IAPP fibrils (Homo sapiens, UniProt P10997)
# T1 construct: purchased Pepscan, Inc. (The Netherlands) or peptide synthesis facility at the Netherlands Cancer Institute; host or cells: synthetic peptide
# T1 sequence (P10997 34-70 limits assumed): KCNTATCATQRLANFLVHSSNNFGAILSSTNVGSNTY
# T2: IAPP (Homo sapiens, UniProt P10997)
# T2 construct: purchased Pepscan, Inc. (The Netherlands) or peptide synthesis facility at the Netherlands Cancer Institute; host or cells: synthetic peptide
# T2 sequence (P10997 34-70 limits assumed): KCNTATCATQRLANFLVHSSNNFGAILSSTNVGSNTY
# Legend:
# [1] = target: T3, albumin-g6p (albumin-AGE) (Bos taurus, UniProt P02769); test: ELISA: binding of tPA (f.l. tPA, K2-P tPA) to albumin-g6p, with Congo red competition; set-up: species or system bovine; details: 20 nM tPA, increasing Congo red
# T3 construct: Bovine serum albumin (BSA) fraction V pH 7.0; host or cells: bovine serum, fraction V
# Method: (§1) Binding of tPA to albumin-g6p (four-week and 23-week incubations), albumin-glyceraldehyde, control albumin, human Hb-g6p (ten-week incubation), Hb control, or to Aβ (1-40) was tested using an enzyme-linked immunosorbent assay (ELISA) set-up. Albumin-g6p and control albumin (2.5 μg ml^−1 in coat buffer, 50 mM Na2CO3/NaHCO3 pH 9.6, 0.02% m/v NaN3, 50 μl/well) were immobilized for one hour at room temperature in 96-well protein Immobilizer plates (Exiqon, Vedbaek, Denmark). Aβ (1-40) (10 μg ml^−1 in coat buffer) was immobilized for 75 minutes at room temperature in a 96-well peptide Immobilizer plate (Exiqon, Vedbaek, Denmark). Control wells were incubated with coat buffer only. After a wash step with 200 μl of PBS/0.1% v/v Tween 20, plates were blocked with 300 μl of PBS/1% v/v Tween 20, for two hours at room temperature while shaking. All subsequent incubations were performed in PBS/0.1% v/v Tween 20 for one hour at room temperature while shaking, with volumes of 50 μl per well. After each incubation, wells were washed five times with 200 μl of PBS/0.1% v/v Tween 20. Increasing amounts of f.l. tPA or K2-P tPA was added in triplicate to coated wells and to control wells. […] Absorbance was read at 490 nm on a Vmax kinetic microplate reader (Molecular Devices, Sunnyvale, Calif., USA). […]
# Aβ (1-40) = Aβ (1-40) (Homo sapiens, UniProt P05067); test: ELISA: binding of tPA (f.l. tPA, K2-P tPA) to Aβ (1-40), with Congo red competition; set-up: Peptide Aβ (1-40), containing amino acids as present in the described human Alzheimer peptide; purchased Pepscan, Inc. or peptide synthesis facility of the Netherlands Cancer Institute; host or cells: chemical synthesis; details: 40 nM tPA, 0-100 μM Congo red
# Method: as §1
# IAPP fibrils = target: T1, IAPP fibrils; test: Amyloid pull-down with IAPP fibrils; format: binding; details: conditioned BHK medium
# Method: (§2) Conditioned medium of BHK cells expressing GST-tagged tPA F, F-EGF, EGF, K1, F-EGF-K1, FXII F, HGFa F, Fn F4, Fn F5, Fn F4-5 and GST was used for amyloid binding assays. At first, constructs were adjusted to approximately equal concentration using Western blots. Qualitative binding of the recombinant fragments were evaluated using a “pull-down” assay. To this end, the recombinantly made fragments were incubated with either Aβ or IAPP fibrils. Since these peptides form insoluble fibers, unbound proteins can be easily removed from the fibers following centrifugation. The pellets containing the bound fragments were subsequently washed several times. Bound fragments were solubilized in SDS-sample buffer and analyzed by PAGE, as were unbound proteins in the supernatant fraction and starting material. The gels were analyzed using immunoblotting analysis with the anti-GST antibody Z-5.
# Aβ fibrils = target: T4, Aβ fibrils (Homo sapiens, UniProt P05067); test: Amyloid pull-down with insoluble Aβ fibers; format: binding; details: conditioned BHK medium
# T4 construct: Peptide Aβ (1-40), containing amino acids as present in the described human Alzheimer peptide; purchased Pepscan, Inc. (The Netherlands) or peptide synthesis facility at the Netherlands Cancer Institute; host or cells: synthetic peptide
# Method: as §2
# [2] = target: T5, fibrin fragment α148-160 FP13 (Homo sapiens, UniProt P02671); test: Amyloid ELISA with tPA F-EGF-GST: FP13; format: binding
# T5 construct: purchased Pepscan, Inc. or peptide synthesis facility of the Netherlands Cancer Institute; host or cells: chemical synthesis
# Method: (§3) In order to define the affinity of the purified tPA F-EGF-GST recombinant protein, ELISAs were performed with immobilized amyloid (poly)peptides and non-amyloid control ΔmIAPP. Twenty-five μg ml^−1 of Aβ, FP13, IAPP or ΔmIAPP was immobilized on Exiqon peptide immobilizer plates. A concentration series of tPA F-EGF-GST in the presence of excess εACA was added to the wells and binding was assayed using anti-GST antibody Z-5. As a control, GST (Sigma-Aldrich, St. Louis, Mo., USA, catalogue #G-5663) was used at the same concentrations.
# Aβ = target: T6, Aβ (Homo sapiens, UniProt P05067); test: Amyloid ELISA with tPA F-EGF-GST: Aβ; format: binding
# T6 construct: Peptide Aβ (1-40), containing amino acids as present in the described human Alzheimer peptide; purchased Pepscan, Inc. or peptide synthesis facility of the Netherlands Cancer Institute; host or cells: chemical synthesis
# Method: as §3
# [3] = tested on: amyloid deposits in human brain inflicted by AD; test: Immunohistochemistry: binding of tPA F-EGF to human AD brain; details: 7 nM construct; Congo red fluorescence to locate amyloid
# Method: Paraffin brain sections of a human inflicted with AD was a kind gift of Prof. Slootweg (Dept. of Pathology, UMC Utrecht). Sections were deparaffinized in a series of xylene-ethanol. Endogenous peroxidases were blocked with methanol/1.5% H2O2 for 15 minutes. After rinsing in H2O, sections were incubated with undiluted formic acid for ten minutes, followed by incubation in PBS for five minutes. Sections were blocked in 10% HPS in PBS for 15 minutes. Sections were exposed for two hours with 7 nM of tPA F-EGF-GST or GST in PBS/0.3% BSA. After three wash steps with PBS, sections were overlayed with 200 ng ml^−1 anti-GST antibody Z-5, for one hour. After washing, ready-to-use goat anti-rabbit Powervision (Immunologic, Duiven, The Netherlands, catalogue #DPVR-55AP) was applied and incubated for one hour. After washing, sections were stained for ten minutes with 3,3′-diamino benzidine (Sigma-Aldrich, St Louis, Mo., USA, catalogue #D-5905), followed by hematoxylin staining for ten seconds. After washing with H2O, sections were incubated with Congo red according to the manufacturer's recommendations (Sigma Diagnostics, St Louis, Mo., USA). […] Analysis of sections was performed on a Leica DMIRBE fluorescence microscope (Rijswijk, The Netherlands). Fluorescence of Congo red was analyzed using an excitation wavelength of 596 nm and an emission wavelength of 620 nm.
# IAPP = target: T2, IAPP; test: Amyloid ELISA with tPA F-EGF-GST: IAPP; format: binding
# Method: as §3
# [4] = tested on: differentiated N1E-115 cells; test: N1E-115 cell detachment (methylene blue staining); format: cell-based, mouse; details: Aβ 10 μM, plasminogen 20 μg ml−1, CpB 1 μM, 24 hours
# Method: FIG. 4 is a set of graphs illustrating stimulation of tPA-mediated plasmin formation by Aβ and synergistic stimulation of cell detachment by plasminogen and Aβ. Panel A depicts that plasminogen (200 μg/ml) and tPA (200 pM) were incubated with Aβ (5 μM) or control buffer. Samples were taken from the reaction mixture at the indicated periods of time and plasmin activity was measured by conversion of the chromogenic plasmin substrate S-2251 at 405 nm. […] After 48 hours, the dead cells were washed away and the remaining adherent cells were stained with methylene blue. Plasmin cannot prevent Aβ-induced cell detachment. Panel C illustrates that N1E-115 cells were differentiated and received the indicated concentrations of plasminogen in the presence or absence of 10 μM Aβ. After 24 hours, cell detachment was assessed. […] Panel D is an immunoblot analysis of plasmin formation and laminin degradation. Differentiated N1E-115 cells were treated with or without Aβ (10 μM) in the absence or presence of added plasminogen. Addition of Aβ results in the formation of plasmin (bottom panel) and in degradation of laminin (top panel).
# (§4) FIG. 5 depicts graphs illustrating that carboxypeptidase B inhibits Aβ-stimulated tPA-mediated plasmin formation and cell detachment. […] Samples were taken from the reaction mixture at the indicated periods of time and plasmin activity was measured by conversion of the chromogenic plasmin substrate S-2251 at 405 nm. The reaction was performed in the absence or the presence of 50 μg ml^−1 carboxypeptidase B (CpB) and in the absence or presence of 3.5 μM carboxypeptidase inhibitor (CPI). CpB greatly attenuates A-stimulated plasmin formation. […] After 24 hours, the cells were photographed. Panel C illustrates that, subsequently, the cells were washed once with PBS and the remaining cells were quantified as percentage-adhered cells by methylene blue staining. In Panel D, the cells were treated as in Panels B and C and medium and cell fractions were collected and analyzed by Western blot using an anti-plasmin(ogen) antibody. Aβ stimulates plasmin formation that is inhibited by CpB.
# N1E-115 mouse neuroblastoma cells were routinely cultured in DMEM containing 5% FCS, supplemented with antibiotics. Cells were differentiated into post-mitotic neurons.^52 The cells were exposed to Aβ (50 μg ml^−1) for 24 hours in the presence or absence of 20 μg ml^−1 plasminogen in the presence or absence of 50 μg ml^−1 CpB. Cells were photographed, counted and lysed by the addition of 4× sample buffer (250 mM Tris pH 6.8, 8% SDS, 10% glycerol, 100 mM DTT, 0.01% w/v bromophenol blue) to the medium. The lysate, containing both adherent and floating (presumably dying and/or dead) cells, as well as the culture medium, were analyzed for the presence of plasminogen and plasmin, as well as for laminin, by Western blot analysis using specific antibodies against plasminogen (MoAb 3642, American Diagnostics), laminin (PoAb L9393, Sigma).
# [5] = target: T7, tPA-mediated plasminogen activation (Homo sapiens, UniProt P00750); test: Plasminogen activation assay; format: biochemical; details: 50 μg ml−1 CpB, 5 μM Aβ
# T7 construct: purchased Boehringer-Ingelheim (Germany)
# Method: Plasminogen (200 μg ml^−1) was incubated with tPA (200 pM) in the presence or the absence of a co-factor (5 μM of either endostatin, Aβ (1-40), or one the fibrin-derived peptides 85, 86 and 87). At the indicated time intervals, samples were taken and the reaction was stopped in a buffer containing 5 mM EDTA and 150 mM εACA. After collection of the samples, a chromogenic plasmin substrate S-2251 was added and plasmin activity was determined kinetically in a spectrophotometer at 37° C.
# [6] = tested on: Aβ-stimulated plasmin formation in N1E-115 cells; test: Western blot of plasmin formation in N1E-115 cultures; format: cell-based, mouse; details: co-incubation with CpB
# Method: as §4
# N1E-115 mouse neuroblastoma cells were routinely cultured in DMEM containing 5% FCS, supplemented with antibiotics. […] Cells were photographed, counted and lysed by the addition of 4× sample buffer (250 mM Tris pH 6.8, 8% SDS, 10% glycerol, 100 mM DTT, 0.01% w/v bromophenol blue) to the medium. […]
# T4 sequence (P05067 672-711): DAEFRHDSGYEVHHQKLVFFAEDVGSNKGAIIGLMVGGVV
# T7 sequence (P00750 36-562): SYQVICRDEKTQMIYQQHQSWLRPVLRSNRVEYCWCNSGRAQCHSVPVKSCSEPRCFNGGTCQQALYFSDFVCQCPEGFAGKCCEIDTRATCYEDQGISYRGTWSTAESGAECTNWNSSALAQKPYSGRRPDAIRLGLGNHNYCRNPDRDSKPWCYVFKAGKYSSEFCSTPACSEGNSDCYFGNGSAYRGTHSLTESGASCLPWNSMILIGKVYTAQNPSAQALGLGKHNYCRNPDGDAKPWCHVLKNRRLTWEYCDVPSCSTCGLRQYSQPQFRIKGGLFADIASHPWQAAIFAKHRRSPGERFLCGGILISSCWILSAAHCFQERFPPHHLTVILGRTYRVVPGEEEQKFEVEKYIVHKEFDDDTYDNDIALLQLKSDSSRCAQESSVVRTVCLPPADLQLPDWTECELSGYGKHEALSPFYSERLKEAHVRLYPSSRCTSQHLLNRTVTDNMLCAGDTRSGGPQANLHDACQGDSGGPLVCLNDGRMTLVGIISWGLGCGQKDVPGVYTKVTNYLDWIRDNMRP
# T6 sequence (P05067 672-711): as the sequence (P05067 672-711) above
# Sequence of Aβ (1-40) (P05067 672-711): as above
# T3 sequence (P02769 25-607): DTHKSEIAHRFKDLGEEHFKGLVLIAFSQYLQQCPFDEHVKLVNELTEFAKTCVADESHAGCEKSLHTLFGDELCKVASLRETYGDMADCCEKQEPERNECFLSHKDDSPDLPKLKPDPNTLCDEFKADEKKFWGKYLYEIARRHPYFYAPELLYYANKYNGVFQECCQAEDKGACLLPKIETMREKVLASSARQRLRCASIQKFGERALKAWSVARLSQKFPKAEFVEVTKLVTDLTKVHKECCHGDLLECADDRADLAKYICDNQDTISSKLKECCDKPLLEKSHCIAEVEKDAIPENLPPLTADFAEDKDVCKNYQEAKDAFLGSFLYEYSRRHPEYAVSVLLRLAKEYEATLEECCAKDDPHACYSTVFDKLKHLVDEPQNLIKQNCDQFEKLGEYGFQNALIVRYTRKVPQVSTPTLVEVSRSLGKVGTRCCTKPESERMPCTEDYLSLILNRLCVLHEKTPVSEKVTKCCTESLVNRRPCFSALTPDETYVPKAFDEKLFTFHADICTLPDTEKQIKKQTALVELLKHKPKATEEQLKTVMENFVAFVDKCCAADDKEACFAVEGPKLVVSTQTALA
molecule,measurement,setting,value
Nc1c(/N=N/c2ccc(-c3ccc(/N=N/c4cc(S(=O)(=O)O)c5ccccc5c4N)cc3)cc2)cc(S(=O)(=O)O)c2ccccc12 [Congo red],competition of tPA binding to albumin-g6p,[1],competed
same,competition of tPA binding to Aβ,Aβ (1-40),competed
HGFa F-GST: finger domain of human hepatocyte growth factor activator with GST tag,"binding to IAPP fibrils (pull-down, not shown)",IAPP fibrils,specifically bind
same,"binding to Aβ fibers (pull-down, Western blot)",Aβ fibrils,specifically bind
"GST: glutathion-S-transferase tag alone, negative control",binding to FP13,[2],did not bind
same,binding to Aβ,Aβ,some binding
same,binding to amyloid deposits in AD brain sections,[3],did not show specific binding
same,"binding to Aβ fibers (pull-down, Western blot)",Aβ fibrils,remain in the supernatant
same,binding to IAPP,IAPP,did not bind
"CpB: porcine pancreas carboxypeptidase B from Roche (protein, UniProt P09955 111-416, looked up) Carboxypeptidase B: TTGHSYEKYNNWETIEAWTKQVTSENPDLISRTAIGTTFLGNNIYLLKVGKPGPNKPAIFMDCGFHAREWISHAFCQWFVREAVLTYGYESHMTEFLNKLDFYVLPVLNIDGYIYTWTKNRMWRKTRSTNAGTTCIGTDPNRNFDAGWCTTGASTDPCDETYCGSAAESEKETKALADFIRNNLSSIKAYLTIHSYSQMILYPYSYDYKLPENNAELNNLAKAAVKELATLYGTKYTYGPGATTIYPAAGGSDDWAYDQGIKYSFTFELRDKGRYGFILPESQIQATCEETMLAIKYVTNYVLGHL",cell detachment induced by plasminogen and Aβ,[4],completely prevented
same,Aβ-stimulated generation of plasmin in the presence of CpB,[5],greatly diminished
same,Aβ-stimulated plasmin formation in the medium and on the cells,[6],complete inhibition
